Reference: publication PMC3985488
Substitutions are numbered along the chain they refer to.

How the values were obtained:
[1] = target: T1, Dpo4 Y274W (Sulfolobus solfataricus, UniProt Q97W02 1-352, C31S;Y274W); assay: steady-state Trp fluorescence
T1 sequence: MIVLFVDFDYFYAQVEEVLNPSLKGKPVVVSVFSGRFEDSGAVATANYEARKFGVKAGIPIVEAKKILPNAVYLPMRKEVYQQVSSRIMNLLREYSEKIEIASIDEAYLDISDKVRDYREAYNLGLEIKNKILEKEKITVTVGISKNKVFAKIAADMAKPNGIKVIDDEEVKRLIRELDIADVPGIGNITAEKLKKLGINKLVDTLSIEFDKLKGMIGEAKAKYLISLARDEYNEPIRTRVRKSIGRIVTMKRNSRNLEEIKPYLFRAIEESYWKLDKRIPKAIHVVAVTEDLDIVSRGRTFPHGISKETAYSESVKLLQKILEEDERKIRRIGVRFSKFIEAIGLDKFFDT

[2] = target: T2, Dpo4 Y108W-K329C-CPM (Sulfolobus solfataricus, UniProt Q97W02 1-352, C31S;Y108W;K329C); assay: stopped-flow FRET
T2 sequence: T1 sequence with Y108W, W274Y, K329C

[3] = target: T3, Dpo4 Y108W (Sulfolobus solfataricus, UniProt Q97W02 1-352, C31S;Y108W); assay: steady-state Trp fluorescence
T3 sequence: T1 sequence with Y108W, W274Y

Measured: binding result

B1: DNAOH 21/30-mer (dsDNA)
DNA 1: CGAGCCGTCGCATCCTACCGC
DNA 2: GATGCTGCAGCGGTAGGATGCGACGGCTCG
binds: [1] | [2] | [3]
